According to patent publication US20040126819A1:

Columns and labels:
[1] = target: GDNF receptors on E10 embryonic chick sympathetic neurons; assay: steady-state saturation binding of 125I-GDNF to E10 embryonic chick sympathetic neurons, triplicates
[2] = target: GDNF receptors on E10 embryonic chick sympathetic neurons; assay: saturation binding of 125I-GDNF to E10 chick sympathetic neurons, 4 C, filtration

B1: recombinant rat GDNF produced in Sf21 insect cells using a baculovirus expression system (ligand, UniProt Q07731 78-211, looked up)
chain: SPDKQAAALPRRERNRQAAAASPENSRGKGRRGQRGKNRGCVLTAIHLNVTDLGLGYETKEELIFRYCSGSCEAAETMYDKILKNLSRSRRLTSDKVGQACCRPVAFDDDLSFLDDSLVYHILRKHSAKRCGCI
modifications: labeled with Na-^125I by the chloramine-T method where used as tracer
EC50 (read off the curve) [1]: 400 pM | Kd [2]: 0.4 nM
